According to patent US20120214174:
Where a chain is given by its changes, count along the chain named. Names and notes keep the numbering of the source.

T1: MUC1-a peptide (AHGVTSAPDTR)
T1 chain: AHGVTSAPDTR

T2: MUC1-b peptide (RPAPGSTAPPA)
T2 chain: RPAPGSTAPPA

B1: HA-tagged wild-type GALNT6 protein stably expressed in HeLa cells (pCAGGS-GALNT6-HA) (protein)
chain: MRLLRRRHMPLRLAMVGCAFVLFLFLLHRDVSSREEATEKPWLKSLVSRKDHVLDLMLEAMNNLRDSMPKLQIRAPEAQQTLFSINQSCLPGFYTPAELKPFWERPPQDPNAPGADGKAFQKSKWTPLETQEKEEGYKKHCFNAFASDRISLQRSLGPDTRPPECVDQKFRRCPPLATTSVIIVFHNEAWSTLLRTVYSVLHTTPAILLKEIILVDDASTEEHLKEKLEQYVKQLQVVRVVRQEERKGLITARLLGASVAQAEVLTFLDAHCECFHGWLEPLLARIAEDKTVVVSPDIVTIDLNTFEFAKPVQRGRVHSRGNFDWSLTFGWETLPPHEKQRRKDETYPIKSPTFAGGLFSISKSYFEHIGTYDNQMEIWGGENVEMSFRVWQCGGQLEIIPCSVVGHVFRTKSPHTFPKGTSVIARNQVRLAEVWMDSYKKIFYRRNLQAAKMAQEKSFGDISERLQLREQLHCHNFSWYLHNVYPEMFVPDLTPTFYGAIKNLGTNQCLDVGENNRGGKPLIMYSCHGLGGNQYFEYTTQRDLRHNIAKQLCLHVSKGALGLGSCHFTGKNSQVPKDEEWELAQDQLIRNSGSGTCLTSQDKKPAMAPCNPSDPHQLWLFV
B2: HA-tagged GALNT6 H271D mutant stably expressed in HeLa cells (pCAGGS-GALNT6 (H271D)-HA) (protein)
chain: B1 chain with H271D
B3: recombinant wild-type GALNT6 protein without a signal peptide (codons 35-622), His-tagged (protein)
chain: EEATEKPWLKSLVSRKDHVLDLMLEAMNNLRDSMPKLQIRAPEAQQTLFSINQSCLPGFYTPAELKPFWERPPQDPNAPGADGKAFQKSKWTPLETQEKEEGYKKHCFNAFASDRISLQRSLGPDTRPPECVDQKFRRCPPLATTSVIIVFHNEAWSTLLRTVYSVLHTTPAILLKEIILVDDASTEEHLKEKLEQYVKQLQVVRVVRQEERKGLITARLLGASVAQAEVLTFLDAHCECFHGWLEPLLARIAEDKTVVVSPDIVTIDLNTFEFAKPVQRGRVHSRGNFDWSLTFGWETLPPHEKQRRKDETYPIKSPTFAGGLFSISKSYFEHIGTYDNQMEIWGGENVEMSFRVWQCGGQLEIIPCSVVGHVFRTKSPHTFPKGTSVIARNQVRLAEVWMDSYKKIFYRRNLQAAKMAQEKSFGDISERLQLREQLHCHNFSWYLHNVYPEMFVPDLTPTFYGAIKNLGTNQCLDVGENNRGGKPLIMYSCHGLGGNQYFEYTTQRDLRHNIAKQLCLHVSKGALGLGSCHFTGKNSQVPKDEEWELAQDQLIRNSGSGTCLTSQDKKPAMAPCNPSDPHQLWLFV
B4: recombinant GALNT6 E382Q mutant protein (protein)
chain: B3 chain with E348Q
B5: recombinant GALNT6 H271D mutant protein (protein)
chain: B3 chain with H237D

Assays:
[1] = biological target: endogenous MUC1 protein (Mucin-1)
[2] = biological target: T1, MUC1-a peptide (AHGVTSAPDTR)
[3] = biological target: T2, MUC1-b peptide (RPAPGSTAPPA)

Row | Protein | Western blot of MUC1 in stable HeLa transformants (band shift by O-glycosylation) [1] | in vitro GalNAc-transferase assay (HPLC of DNS-labelled peptide) [2] | in vitro GalNAc-transferase assay (HPLC of DNS-labelled peptide) [3]
1 | B1 | In the cells with WT-GALNT6 (clone no. 101, 110 and 304), the highest molecular weight of MUC1 protein (>250 kDa) was observed | – | –
2 | B2 | in those with mock (clone no. 001, 003 and 006) or H271D (clone no. 102, 212 and 114) the shifted band was not observed | – | –
3 | B3 | – | WT-GALNT6 rapidly O-glycosylated MUC1 peptides in 10-min incubation | WT-GALNT6 rapidly O-glycosylated MUC1 peptides in 10-min incubation
4 | B4 | – | mutant-GALNT6 proteins (H271D and E382Q) could not transfer GalNAc to MUC1 peptides even by 16 hours incubation | mutant-GALNT6 proteins (H271D and E382Q) could not transfer GalNAc to MUC1 peptides even by 16 hours incubation
5 | B5 | – | mutant-GALNT6 proteins (H271D and E382Q) could not transfer GalNAc to MUC1 peptides even by 16 hours incubation | mutant-GALNT6 proteins (H271D and E382Q) could not transfer GalNAc to MUC1 peptides even by 16 hours incubation
